Laboratory results as given in patent US20150104459A1.

Key:
[1] = target: M2 protein of influenza A/Hong Kong/483/97 (H5N1) (influenza A virus A/Hong Kong/483/97 (H5N1)); note: test concentration or dose not given here
[2] = target: recombinant soluble homotrimeric HA, A/northern shoveler/California/HKWF115/2007 (H6N1) (influenza A virus A/northern shoveler/California/HKWF115/2007 (H6N1)); assay: microarray, trimeric HA, transfection supernatant; details: remark: other sources report otherwise
[3] = target: recombinant soluble homotrimeric HA, A/chicken/Vietnam/NCVD-016/08 (H5N1) (influenza A virus A/chicken/Vietnam/NCVD-016/2008 (H5N1)); assay: microarray, trimeric HA, transfection supernatant; details: remark: other sources report otherwise
[4] = target: recombinant soluble homotrimeric HA, A/duck/Yangzhou/02/2005 (H8N4) (influenza A virus A/duck/Yangzhou/02/2005 (H8N4)); assay: microarray, trimeric HA, transfection supernatant; details: remark: other sources report otherwise
[5] = target: recombinant soluble homotrimeric HA of A/California/4/09 (H1N1) (Influenza A virus A/California/04/2009 (H1N1)); assay: HA microarray, BCC supernatant; details: remark: other sources report otherwise
[6] = target: recombinant soluble homotrimeric HA of A/Wisconsin/67/05 (H3N2) (Influenza A virus A/Wisconsin/67/2005 (H3N2)); assay: HA microarray, BCC supernatant; details: remark: other sources report otherwise
[7] = target: recombinant soluble homotrimeric HA of A/chicken/Vietnam/NCVD-016/08 (H5N1) (Influenza A virus A/chicken/Vietnam/NCVD-016/2008 (H5N1)); assay: HA microarray, BCC supernatant; details: remark: other sources report otherwise
[8] = target: recombinant soluble homotrimeric HA of A/Japan/305/57 (H2N2) (Influenza A virus A/Japan/305/1957 (H2N2)); assay: HA microarray, BCC supernatant; details: remark: other sources report otherwise
[9] = target: recombinant soluble homotrimeric HA of A/Solomon Islands/3/06 (H1N1) (Influenza A virus A/Solomon Islands/3/2006 (H1N1)); assay: HA microarray, BCC supernatant; details: remark: other sources report otherwise

B1: 3259_J21 (antibody, V domains shown)
VH: QVQLQESGPRVVRPSETLSLTCTVSGGSISSYNWIWIRQPPGKGLEWIGHIYDYGRTFYNSSLQSRPTISVDASKNQLSLRLTSVTASDTAVYYCARPLGILHYYAMDLWGQGTTVTVSS
VL: DIQMTQSPLSVSVSVGDRVTIACRASQSIDKFLNWYQQKPGKAPKLLIYGASNLHSGAPSRFSASGSGTDFTLTITNIQTEDFATYLCQQSFSVPAFGGGTKVEIK
B1 was tested, and the FACS M2-HK MFI [1] was 1670 MFI.

B2: 3139_P23 (antibody, V domains shown)
VH: QVQLQESGPRLVKPSESLSLTCTVSGGSISNSFWGWIRQPPGEGLEWIGYVYNSGNTKYNPSLKSRVTISRDTSKSQLYMKLRSVTAADTAVYYCARHDDASHGYSISWGHGTLVTVSS
VL: DIQMTQSPSSLSASVGDRVTITCRASQTISTYLNWYQQKSGKAPKLLIYAASGLQSGVPSRFSGSGSGTDFTLTISSLQPEDFATYFCQQSYNTPLTFGQGTKVEIK
B2 was tested, and the FACS M2-HK MFI [1] was 110 MFI.

B3: TCN-549 (5092_P04) (antibody, V domains shown)
VH: QVQLVQSGAEVKKPGASVKVSCKASGYTFTGYYMHWVRQAPGQGLEWMGWINPNSGDTNYAQKFQGRVTMTRDTSITTAYMELSSLRSDDTAVYYCARDSPYSSSWSFFDYWGQGPLVTVSS
VL: not shown
Binder B3 has a Trimeric HA Binding RLU [2] of 996 RLU, a Trimeric HA Binding RLU [3] of 1600 RLU and a Trimeric HA Binding RLU [4] of 9450 RLU. For the same binder, the Trimeric HA Binding RLU [5] was 338 RLU, the Trimeric HA Binding RLU [6] was 30900 RLU and the Trimeric HA Binding RLU [7] was 498 RLU. It also gave a Trimeric HA Binding RLU [8] of 387 RLU and a Trimeric HA Binding RLU [9] of 284 RLU.

B4: 3241_G23 (antibody, V domains shown)
VH: QVQLQQSGPGLVKPSQTLSLTCTVSGGPVSGGGYSWNWIRQRPGQGLEWVGFMFHSGSPRYNPTLKSRITISVDTSKNLVSLKLSSVTAADTAVYFCARVGQMDKYYAMDVWGQGTTVTVSS
VL: DIQMTQSPSSLSSSVGDRVTITCRASQSIGAYVNWYQQKAGKAPQVLIFGASNLQSGVPSRFSGSGSGTDFTLTISSLQPEDFATYFCQQTYSTPITFGQGTRLEIK
Work on B4 yielded an FACS M2-HK MFI [1] of 1700 MFI.

B5: 3260_D19 (antibody, V domains shown)
VH: DMQLVESGGGLVPPGGSLRLSCAASGFSVSDNYINWVRQAPGKGLDWVSVFYSADRTSYADSVKGRFTVSSHDSKNTVYLQMNSLRAEDTAVYYCARVQKSYYGMDVWGQGTTVTVSS
VL: GIQMTQSPSSLSASVGDRVTITCRASQSISRYLNWYLQKPGKAPKLLISGASSLQSGVPSRFSGTGSGTEFTLTISSLQPEDFATYYCQQTFSIPLFGQGTKVEIK
B5 was tested, and the FACS M2-HK MFI [1] was 846 MFI.

B6: 3242_P05 (antibody, V domains shown)
VH: DMQLVESGGGLVPPGGSLRLSCAASGFSVSDNYINWVRQAPGKGLDWVSVFYSADRTSYADSVKGRFTVSSHDSKNTVYLQMNSLRAEDTAVYYCARVQKSYYGMDVWGQGTTVTVSS
VL: GIQMTQSPSSLSASVGDRVTITCRASQSISRYLNWYLQKPGKAPKLLISGASSLQSGVPSRFSGTGSGTEFTLTISSLQPEDFATYYCQQTFSIPLFGQGTKVEIK
B6 was tested, and the FACS M2-HK MFI [1] was 596 MFI.

B7: 3245_O19 (antibody, V domains shown)
VH: EVQLVESGGGLVQPGGSLRLSCTASGLSVSSTYMNWVRQAPGKGLEWVSVFYSETRTYYADSVKGRFTVSRHNSNNTLYLQMNSLRVEDTAVYYCARVQRLSYGMDVWGQGTTVTVSS
VL: DIQMTQSPSSLSASVGDRVTITCRASQSISTYLNWYQKRPGKAPKLLVYGASTLQSGVPSRFSGSGSGTDFTLTIASLQPEDSATYYCQQTYSIPLFGQGTRLEIK
For B7, the FACS M2-HK MFI [1] was 919 MFI.

B8: 3244_H04 (antibody, V domains shown)
VH: EVQLVESGGGLVQPGGSLRLSCTASGLSVSSTYMNWVRQAPGKGLEWVSVFYSETRTYYADSVKGRFTVSRHNSNNTLYLQMNSLRAEDTAVYYCARVQRLSYGMDVWGQGTTVTVSS
VL: DIQMTQSPSSLSASVGDRVTITCRASQSISTYLNWYQKRPGKAPKLLVYGASSLQSGVPSRFSGSGSGTDFTLTIASLQPEDSAVYYCQQTYSIPLFGQGTRLEIK
B8 was tested, and the FACS M2-HK MFI [1] was 963 MFI.

B9: 3252_C13 (antibody, V domains shown)
VH: QVQLQESGPGLVKPSETLSLTCTVSGASISSDYWSWIRLPPGKGLEWIGYIYNRGSTKYTPSLKSRVTISLDTAENQFSLRLRSVTAADTAIYYCARHVGGHTYGIDYWGQGTLVTVSS
VL: DIQMTQSPSSLSASVGDRVTITCRASQSISNYLNWYQHKPGEAPKLLNYAASSLQSGVPSRFSASGSGTDFTLTISSLQPEDFATYYCQQSYNTPITFGQGTRLEIK
In the case of B9, the FACS M2-HK MFI [1] is reported as 449 MFI.

B10: 3362_B11 (antibody, V domains shown)
VH: QVQLQASGPGLVKPSETLSLTCTVSGDSITSGAYYWTWIRQHPGKGLEWIGYIYYSGNTYYNPSLKSRVTISLDTSKNQFSLKVNSVTAADTAVYYCARAASTSVLGYGMDVWGQGTTVTVSS
VL: DIQMTQSPSSLSASVGDRVTITCRASQSISRYLNWYQQEPGKAPKLLVYAASSLQSGVPSRFSGSGSGTDFTLTISSLQPEDFATYYCQQSYSTPLTFGQGTRLEIK
In the case of B10, the FACS M2-HK MFI [1] is reported as 218 MFI.

B11: 3420_I23 (antibody, V domains shown)
VH: QVQLQESGPGLVKPSETLSVTCKVSGDSISSYSWSWIRQPPGKGLEWVGYLYYSGSTKYNPSLKSRTTISVDTSTNQLSLKLSFVTAADTAVYFCARTGSESTTGYGMDVWGQGTTVTVSS
VL: DIQMTQSPSSLSASVGDRVTITCRASQSISTYLNWYQQKPGKAPKLLIYAASSLHSGVPSRFSGSGSGTDFALTISSLQPEDFATYYCQQSYSPPITFGQGTRLEIK
B11 gave an FACS M2-HK MFI [1] of 112 MFI.

B12: 3255_J06 (antibody, V domains shown)
VH: QVQLQESGPGLVKPSETLSLTCTVSGASISSDYWSWIRLPPGKGLEWIGYIYNRGSTKYTPSLKSRVTISLDTAENQFSLRLRSVTAADTAVYYCARHVGGHTYGIDYWGQGTLVTVSS
VL: DIQMTQSPSSLSASVGDRVTITCRASQSISNYLNWYQHKPGEAPKLLNYAASSLQSGVPSRFSASGSGTDFTLSISGLQPEDFATYYCQQSYNTPITFGPGTRLEIK
In the case of B12, the FACS M2-HK MFI [1] is reported as 442 MFI.

B13: 3248_P18 (antibody, V domains shown)
VH: QVQLQESGPGLVKPSETLSLTCTVSGGSISAYHWSWIRQPPGKGLEWIGHIFDSGSTYYNPSLKSRVTISLDASKNQLSLRLTSVTASDTAIYYCARPLGSRYYYGMDVWGQGTTVTVSS
VL: DIQMTQSPSSLSASVGDRVTITCRASQSISRYLNWYQQKPGKAPKLLIYGASTLQNGAPSRFSGSGSGTDFTLTISSLQPEDSATYLCQQSYSVPAFGGGTKVEVK
B13 showed an FACS M2-HK MFI [1] of 967 MFI.

B14: 3244_I10 (antibody, V domains shown)
VH: QVQLQESGPGLLKPSDTLALTCTVSGGSITSDYWSWIRQPPGRGLDWIGFFYNGGSTKYNPSLKSRVTISADTSKNQLSLKLTSVTAADTGVYYCARHDAKFSGSYYVASWGQGTRVTVSS
VL: DIQMTQSPSSLSASVGDRVTISCRASQSISTYLNWYQQQPGKAPKVLIFGATNLQSGVPSRFSGSGSGTDFTLTISSLQPEDFATYYCQQSYNTPLIFGQGTKLEIK
Binder B14 has an FACS M2-HK MFI [1] of 434 MFI.

B15: 3243_J07 (antibody, V domains shown)
VH: QVQLQESGPGLLKPSDTLALTCTVSGGSITSDYWSWIRQPPGRGLDWIGFFYNGGSTKYNPSLKSRVTISADTSKNQLSLKLTSVTAADTGVYYCARHDVKFSGSYYVASWGQGTRVTVSS
VL: DIQMTQSPSSLSASVGDRVTISCRASQSISTYLNWYQQQPGKAPKVLISGATNLQSGVPSRFSGSGSGTDFTLTISSLQPEDFATYYCQQSYNTPLIFGQGTKLEIK
With B15 the FACS M2-HK MFI [1] was 131 MFI.

B16: 3253_P10 (antibody, V domains shown)
VH: QVQLQESGPGLLKPSDTLALTCTVSGGSITSDYWSWIRQPPGRGLDWIGFFYNGGSTKYNPSLKSRVTISADTSKNQLSLKLTSVTAADTGVYYCARHDAKFSGSYYVASWGQGTRVTVSS
VL: DIQMTQSPSSLSASVGDRVTISCRASQSISTYLNWYQQQPGKAPKVLISGATDLQSGVPSRFSGSGSGTDFTLTISSLQPEDFATYYCQQSYNTPLIFGQGTKLEIK
For B16, the FACS M2-HK MFI [1] was 43 MFI.

B17: 3136_G05 (antibody, V domains shown)
VH: QVQLQESGPGLVKPSETLSLTCSVSGGSISSDFWSWIRQPPGKGLEWIGYVYNRGSTKYSPSLKSRVTISADMSKNQFSLNMSSVTAADTAVYYCAKNGRSSTSWGIDVWGKGTTVTVSS
VL: DIQMTQSPSSLSASVGDRLTITCRASQSISTYLHWYQQKPGKAPKLLIYAASSLQSGVPSRFSGSRSGTDFTLTISSLQPDDFATYYCQQSYSPPLTFGPGTKVDMK
B17 gave an FACS M2-HK MFI [1] of 109 MFI.

B18: TCN-544 (5082_A19) (antibody, V domains shown)
VH: QVQLQESGPGLVKPSETLSLTCTVSRGSIGHYFWSWIRQPPGKGLEWIGYISYSGSTKYNPSLRSRVTISVDTSKNQFSLNLNSVTATDTALYYCAREDYDILTGAGPGMEVWGQGTTVTVSS
VL: QSMLTQPPSASGTPGQRVTISCSGSSSNIGSNTVNWFKHLPGTAPKLLIYRNDLRPSGVPDRFSGSKSGTSASLAISGLQSEDEADYYCATWDDSLNGFYVFGTGTKVTVL
Binder B18 has a Trimeric HA Binding RLU [3] of 3070 RLU, a Trimeric HA Binding RLU [4] of 9440 RLU and a Trimeric HA Binding RLU [5] of 281 RLU. The Trimeric HA Binding RLU [7] was 272 RLU, the Trimeric HA Binding RLU [8] was 187 RLU and the Trimeric HA Binding RLU [9] was 179 RLU.
